Laboratory results published in patent US20260034233A1.

Target: Cyno Gal-3 (Macaca fascicularis)
Assay: SPR; kinetic fit, which the text calls poor for the monkey sample; immobilised partner and concentrations not given

B1: SIF001 (antibody, V domains shown)
VH: QVQLVQSGSELKKPGASVKVSCKASGYTFTNYGMNWVRQAPGQGLEWMGWINTYTGEPTYADDFKGRFVFSLDTSVSTAYLQISSLKNEDMAVYFCARYAMDYWGQGTLVTVSS
VL: EAVVTQEPSLTVSPGGTVTLTCRSSTGAVTTSNYANWVQQKPGQAFTGLIGGTSNRAPGTPARFSGSLLGDKAALTLLGAQPEDEAEYFCALWYSTHYVFGGGTKLTVL
Kd: 64.1 nM
